The values that follow come from patent US20230357429A1 (JANUX THERAPEUTICS, published 2023).

Where two headings read alike, the source gives them in different places. Where no end group is shown, it is not given here.

B1: TCE-10 (anti-CD3 scFv R100A; anti-TROP2 wt) (bispecific antibody)
light: DIQLTQSPSSLSASVGDRVSITCKASQDVSIAVAWYQQKPGKAPKLLIYSASYRYTGVPDRFSGSGSGTDFTLTISSLQPEDFAVYYCQQHYITPLTFGAGTKVEIKRTVAAPSVFIFPPSDEQLKSGTASVVCLLNNFYPREAKVQWKVDNALQSGNSQESVTEQDSKDSTYSLSSTLTLSKADYEKHKVYACEVTHQGLSSPVTKSFNRGEC
heavy: not shown
notes: scFv on the Fab heavy chain; also called TCE-10 (R100A)
B2: TCE-31 (anti-CD3 scFv W238A; anti-TROP2 wt) (bispecific antibody)
light: DIQLTQSPSSLSASVGDRVSITCKASQDVSIAVAWYQQKPGKAPKLLIYSASYRYTGVPDRFSGSGSGTDFTLTISSLQPEDFAVYYCQQHYITPLTFGAGTKVEIKRTVAAPSVFIFPPSDEQLKSGTASVVCLLNNFYPREAKVQWKVDNALQSGNSQESVTEQDSKDSTYSLSSTLTLSKADYEKHKVYACEVTHQGLSSPVTKSFNRGEC
heavy: not shown
notes: scFv on the Fab heavy chain; also called TCE-31 (W238A)
B3: TCE-22 (anti-CD3 scFv W112A; anti-TROP2 wt) (bispecific antibody)
light: DIQLTQSPSSLSASVGDRVSITCKASQDVSIAVAWYQQKPGKAPKLLIYSASYRYTGVPDRFSGSGSGTDFTLTISSLQPEDFAVYYCQQHYITPLTFGAGTKVEIKRTVAAPSVFIFPPSDEQLKSGTASVVCLLNNFYPREAKVQWKVDNALQSGNSQESVTEQDSKDSTYSLSSTLTLSKADYEKHKVYACEVTHQGLSSPVTKSFNRGEC
heavy: not shown
notes: scFv on the Fab heavy chain; also called TCE-22 (W112A)
B6: Peptide-70 (peptide)
peptide: YLCGPDGDETLACY
modifications: cysteine pairing not given here; also: biotinylated, site not given here
notes: mask peptide for the CD3 scFv

The target in experiment [1] is T1, Peptide-72 (cysteine pairing not given here; also: biotinylated, site not given here).
T1 construct: mask peptide for the CD3 scFv
T1 peptide: AYCGPEFDESVGCM
In words: ELISA, TCE on captured biotin-peptide.

Experiment [2] concerns the target T2, Peptide-65 (cysteine pairing not given here; also: biotinylated, site not given here).
T2 construct: mask peptide for the CD3 scFv
T2 peptide: QGCGTIADPEPHCW
Kind of experiment: ELISA, TCE on captured biotin-peptide. (An ELISA detects its analyte on a solid surface through an enzyme-linked reagent.)

Experiment [3] deals with T3, Peptide-66 (cysteine pairing not given here; also: biotinylated, site not given here).
T3 construct: mask peptide for the CD3 scFv
T3 peptide: GSQCLGPEWEVCPY
In words: ELISA, TCE on captured biotin-peptide.

Experiment [4] deals with T4, Peptide-67 (cysteine pairing not given here; also: biotinylated, site not given here).
T4 construct: mask peptide for the CD3 scFv
T4 peptide: VYCGPEFDESVGCM
Kind of experiment: ELISA, TCE on captured biotin-peptide.

Experiment [5] deals with T5, Peptide-71 (cysteine pairing not given here; also: biotinylated, site not given here).
T5 construct: mask peptide for the CD3 scFv
T5 peptide: VDCGPDGDESILCY
Kind of experiment: ELISA, TCE on captured biotin-peptide.

The target in experiment [6] is T6, Peptide-75 (cysteine pairing not given here; also: biotinylated, site not given here).
T6 construct: mask peptide for the CD3 scFv
T6 peptide: GSACLGPEWEVCPY
In words: ELISA, TCE on captured biotin-peptide.

In experiment [7] the target is T7, Peptide-74 (cysteine pairing not given here; also: biotinylated, site not given here).
T7 construct: mask peptide for the CD3 scFv
T7 peptide: ASQCLGPEWEVCPY
Kind of experiment: ELISA, TCE on captured biotin-peptide.

In experiment [8] the target is T8, Peptide-69 (cysteine pairing not given here; also: biotinylated, site not given here).
T8 construct: mask peptide for the CD3 scFv
T8 peptide: SECLVDLQSDPCYW
Kind of experiment: ELISA, TCE on captured biotin-peptide.

The target of experiment [9] is T9, Peptide-68 (cysteine pairing not given here; also: biotinylated, site not given here).
T9 construct: mask peptide for the CD3 scFv
T9 peptide: DWCWYSPDNDGLCD
Kind of experiment: ELISA, TCE on captured biotin-peptide.

The target of experiment [10] is T10, CD3 (biotinylated CD3 antigen) (human, UniProt P07766 23-126, limits assumed, biotinylated (site not stated)).
T10 construct: also called CD3ε; human CD3
Kind of experiment: ELISA, TCE on captured biotin-CD3.

Experiment [11] concerns the target T1, Peptide-72. In words: ELISA, TCE on captured biotin-peptide.
The experiment “Peptide-70” has as its target B6. Kind of experiment: ELISA, TCE on captured biotin-peptide.
Experiment [12] concerns the target T3, Peptide-66. In words: ELISA, TCE on captured biotin-peptide.
For experiment [13], the target named is T4, Peptide-67. In words: ELISA, TCE on captured biotin-peptide.
The target of experiment [14] is T5, Peptide-71. Kind of experiment: ELISA, TCE on captured biotin-peptide.
In experiment [15] the target is T6, Peptide-75. Kind of experiment: ELISA, TCE on captured biotin-peptide.
The target of experiment [16] is T7, Peptide-74. In words: ELISA, TCE on captured biotin-peptide.
Experiment [17] has as its target T8, Peptide-69. Kind of experiment: ELISA, TCE on captured biotin-peptide.
In experiment [18] the target is T9, Peptide-68. In words: ELISA, TCE on captured biotin-peptide.
The target of experiment [19] is T10, CD3 (biotinylated CD3 antigen). Kind of experiment: ELISA: biotinylated CD3 captured on neutravidin plates, TCE titrated, HRP secondary antibody.
Experiment [20] has the same target. In words: ELISA, TCE on captured biotin-CD3. This is another data set of the same source.
In experiment [21] the target is T11, Peptide-73 (cysteine pairing not given here; also: biotinylated, site not given here).
T11 construct: mask peptide for the CD3 scFv
T11 peptide: VYCGPEFDESVGCA
Kind of experiment: ELISA, TCE on captured biotin-peptide.

Experiment [22] deals with T2, Peptide-65. In words: ELISA, TCE on captured biotin-peptide.
In experiment [23] the target is T11, Peptide-73. Kind of experiment: ELISA, TCE on captured biotin-peptide.
In experiment [24] the target is B2. Kind of experiment: competition ELISA, TCE on captured CD3.
The target of experiment [25] is T12, TCE-26 (anti-CD3 scFv W233A; anti-TROP2 HC wt).
T12 construct: scFv on the Fab heavy chain; also called TCE-26 (W233A)
Kind of experiment: competition ELISA, TCE on captured CD3.

The target of experiment [26] is B3. Kind of experiment: competition ELISA, TCE on captured CD3.
The target of experiment [27] is T13, TCE-1 (anti-CD3 scFv wt; anti-TROP2 Fab wt).
T13 construct: anti-CD3 scFv fused to the N-terminus of the anti-TROP2 Fab heavy chain; also called TCE-1 (wt)
In words: competition ELISA: peptide titrated and pre-incubated with a constant concentration of TCE-1, binding of TCE-1 to plate-bound biotinylated CD3 detected.

Experiment [28] deals with T14, TCE-38 (anti-CD3 scFv F240A; anti-TROP2 F108A).
T14 construct: scFv on the Fab heavy chain
In words: competition ELISA, TCE on captured CD3.

The target in experiment [29] is T15, TCE-36 (anti-CD3 scFv H101A; anti-TROP2 F108A).
T15 construct: scFv on the Fab heavy chain
Kind of experiment: competition ELISA, TCE on captured CD3.

Experiment [30] concerns the target T16, TCE-13 (anti-CD3 scFv N103A; anti-TROP2 wt).
T16 construct: scFv on the Fab heavy chain; also called TCE-13 (N103A)
Kind of experiment: competition ELISA, TCE on captured CD3.

The target in experiment [31] is T17, TCE-20 (anti-CD3 scFv S110A; anti-TROP2 wt).
T17 construct: scFv on the Fab heavy chain; also called TCE-20 (S110A)
In words: competition ELISA, TCE on captured CD3.

In experiment [32] the target is B1. Kind of experiment: competition ELISA, TCE on captured CD3.
Experiment [33] concerns the target T18, TCE-14 (anti-CD3 scFv F104A; anti-TROP2 wt).
T18 construct: scFv on the Fab heavy chain; also called TCE-14 (F104A)
Kind of experiment: competition ELISA, TCE on captured CD3.

In general, EC50 refers to the midpoint of the concentration-response curve. For the molecule B1, the EC50 was 1.85 nM in the experiment with Peptide-72 [1]; 473 nM with Peptide-65 [2]; 0.58 nM in the experiment with Peptide-66 [3]; 1.76 nM with Peptide-67 [4]; 0.63 nM with Peptide-71 [5]; 0.76 nM in the experiment with Peptide-75 [6]. The concentration for a half-maximal effect (EC50) with Peptide-74 [7] came to 0.68 nM; with Peptide-69 [8], 8.73 nM; with Peptide-68 [9], 1.78 nM; in [10], 0.35 nM.

Consider B2, for which the concentration giving a half-maximal response (EC50) with Peptide-72 [11] amounted to 5.66 nM; with Peptide-70, 8 nM; in the experiment with Peptide-66 [12], 6.34 nM; in the experiment with Peptide-67 [13] it was 5.96 nM; in the experiment with Peptide-71 [14], 112 nM; with Peptide-75 [15], 7.08 nM. Also, the EC50 amounted to 5.33 nM with Peptide-74 [16]; 0.29 nM with Peptide-69 [17]; 2.29 nM in the experiment with Peptide-68 [18]; 8.65 nM in experiment [19]; 24 nM in experiment [20]; 7.03 nM with Peptide-73 [21].

With B3, the EC50 in the experiment with Peptide-72 [11] stood at 11.2 nM; with Peptide-65 [22] it was 220 nM; in the experiment with Peptide-70 it was 0.59 nM; in the experiment with Peptide-66 [12], 26.4 nM; in the experiment with Peptide-67 [13] it was 10.5 nM; with Peptide-71 [14], 4.87 nM. Also, the concentration giving a half-maximal response (EC50) in the experiment with Peptide-75 [15] came out at 38.2 nM; with Peptide-74 [16], 23.4 nM; in the experiment with Peptide-73 [23] it was 12.2 nM; with Peptide-68 [18], 794 nM; in experiment [20], 0.95 nM.

B4: TCE-21 (anti-CD3 scFv Y111A; anti-TROP2 wt) (bispecific antibody)
light: DIQLTQSPSSLSASVGDRVSITCKASQDVSIAVAWYQQKPGKAPKLLIYSASYRYTGVPDRFSGSGSGTDFTLTISSLQPEDFAVYYCQQHYITPLTFGAGTKVEIKRTVAAPSVFIFPPSDEQLKSGTASVVCLLNNFYPREAKVQWKVDNALQSGNSQESVTEQDSKDSTYSLSSTLTLSKADYEKHKVYACEVTHQGLSSPVTKSFNRGEC
heavy: not shown
notes: scFv on the Fab heavy chain; also called TCE-21 (Y111A)
As for B4, the concentration giving a half-maximal response (EC50) was found to be 76.9 nM with Peptide-72 [11]; 1080 nM with Peptide-65 [22]; 11.9 nM in the experiment with Peptide-70; 49.1 nM with Peptide-66 [12]; 77.7 nM with Peptide-67 [13]; 106 nM with Peptide-71 [14]. The EC50 with Peptide-75 [15] was 95.6 nM; in the experiment with Peptide-74 [16], 64.2 nM; in the experiment with Peptide-69 [17] it was 572 nM; with Peptide-68 [18], 381 nM; in experiment [20], 592 nM.

B5: TCE-27 (anti-CD3 scFv Y234A; anti-TROP2 wt) (bispecific antibody)
light: DIQLTQSPSSLSASVGDRVSITCKASQDVSIAVAWYQQKPGKAPKLLIYSASYRYTGVPDRFSGSGSGTDFTLTISSLQPEDFAVYYCQQHYITPLTFGAGTKVEIKRTVAAPSVFIFPPSDEQLKSGTASVVCLLNNFYPREAKVQWKVDNALQSGNSQESVTEQDSKDSTYSLSSTLTLSKADYEKHKVYACEVTHQGLSSPVTKSFNRGEC
heavy: not shown
notes: scFv on the Fab heavy chain
B5 displayed a half-maximal effective concentration (EC50) with Peptide-73 [21] of 0.35 nM.

As usually defined, the IC50 is the midpoint of a concentration-inhibition curve. In the case of B6, the IC50 in [24] was 43500 nM; in experiment [25] it was 5000 nM; in [26], 470 nM; in [28], 140 nM; in [29], 80 nM; in experiment [30], 2110 nM. The 50% inhibitory concentration (IC50) in [31] worked out at 370 nM; in experiment [32], 240 nM; in [33] it was 180 nM. The “IC50 (read off the curve)” value in experiment [27] was about 10 nM.
